# Experimental data: patent US20240000838A1 (SIMCERE INNOVATION, published 2024)
# T1: Human CD5 Protein, HisTag (AcroBiosystems, Cat #CD5-H52H5) (human, UniProt P06127 25-372)
# T1 construct: Bought staining reagent, detected with His-APC antibody; also called CD5 antigen; APC labeled CD5 antigen; not shown: His tag
# T1 sequence (looked up): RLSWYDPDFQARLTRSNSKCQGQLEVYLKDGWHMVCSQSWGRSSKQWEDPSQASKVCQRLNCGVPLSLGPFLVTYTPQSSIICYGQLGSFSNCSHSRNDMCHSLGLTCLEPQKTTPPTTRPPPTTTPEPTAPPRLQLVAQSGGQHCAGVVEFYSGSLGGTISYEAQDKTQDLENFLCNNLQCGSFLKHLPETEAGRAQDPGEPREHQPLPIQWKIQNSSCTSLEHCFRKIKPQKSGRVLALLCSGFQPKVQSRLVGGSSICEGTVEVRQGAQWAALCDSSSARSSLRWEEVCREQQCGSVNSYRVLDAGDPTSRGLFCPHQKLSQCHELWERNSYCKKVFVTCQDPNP
# B1: CD5 CAR CAR5-6, construct S010 (other)
# chain: EIQLVQSGGGLVKPGGSVRISCAASGYTFTNYGMNWVRQAPGKGLEWMGWINTHTGEPTYADSFKGRFTFSLDDSKNTAYLQINSLRAEDTAVYFCTRRGYDWYFDVWGQGTTVTVSSGGGGSGGGGSGGGGSDIQMTQSPSSLSASVGDRVTITCRASQDINSYLSWFQQKPGKAPKTLIYRANRLESGVPSRFSGSGSGTDYTLTISSLQYEDFGIYYCQQYDESPWTFGGGTKLEIKASTTTPAPRPPTPAPTIASQPLSLRPEACRPAAGGAVHTRGLDFACDIYIWAPLAGTCGVLLLSLVITLYCKRGRKKLLYIFKQPFMRPVQTTQEEDGCSCRFPEEEEGGCELRVKFSRSADAPAYKQGQNQLYNELNLGRREEYDVLDKRRGRDPEMGGKPRRKNPQEGLYNELQKDKMAEAYSEIGMKGERRRGKGHDGLYQGLSTATKDTYDALHMQALPPR
# notes: Chimeric antigen receptor on T cells
# Biological target: T1, Human CD5 Protein, HisTag …
# Assay: flow cytometry; CAR-T cells stained with soluble human CD5-His and His-APC antibody
# Protocol: CD3 and CD5 are stained with a CD3-FITC antibody (BD Biosciences, #555339) and a CD5-APC antibody (BD Biosciences, #555355) for 30 minutes at R.T. in the dark. CAR5 surface expression is detected by staining with Human CD5 Protein, HisTag (AcroBiosystems, Cat #CD5-H52H5) for 1 hour at R.T., washed and then incubated with His-APC antibody (R&D Systems, IC050A) for 30 minutes at R.T. in the dark. CAR33 expression is stained with CD33 human protein-PE (Sino Biological, 12238-HCCH_P) for 1 hour at R.T. All the staining is performed at 1:10 dilutions. DAPI (Thermo Scientific, Cat #BV-421, 1:5000) is used to stain dead cells before running by the Attune NxT Flow Cytometer (Thermo Fisher Scientific). Data is further analyzed by either using Attune NxT flow software or FlowJo software.
binder,measurement,value
B1,% of T cells stained with CD5 antigen (CAR5 expression),> 80%
